# From patent publication US20210070886
# Experiments:
# [1] = target: fluorescein-modified BSA encapsulated in octahedra-shaped DNA origami (OCs) (UniProt P02769)
# [2] = target: fluorescein labeled bovine serum albumin (BSA), free in solution (UniProt P02769)
# fluorescein labeled bovine serum albumin (BSA), free in solution, sequence (P02769 25-607): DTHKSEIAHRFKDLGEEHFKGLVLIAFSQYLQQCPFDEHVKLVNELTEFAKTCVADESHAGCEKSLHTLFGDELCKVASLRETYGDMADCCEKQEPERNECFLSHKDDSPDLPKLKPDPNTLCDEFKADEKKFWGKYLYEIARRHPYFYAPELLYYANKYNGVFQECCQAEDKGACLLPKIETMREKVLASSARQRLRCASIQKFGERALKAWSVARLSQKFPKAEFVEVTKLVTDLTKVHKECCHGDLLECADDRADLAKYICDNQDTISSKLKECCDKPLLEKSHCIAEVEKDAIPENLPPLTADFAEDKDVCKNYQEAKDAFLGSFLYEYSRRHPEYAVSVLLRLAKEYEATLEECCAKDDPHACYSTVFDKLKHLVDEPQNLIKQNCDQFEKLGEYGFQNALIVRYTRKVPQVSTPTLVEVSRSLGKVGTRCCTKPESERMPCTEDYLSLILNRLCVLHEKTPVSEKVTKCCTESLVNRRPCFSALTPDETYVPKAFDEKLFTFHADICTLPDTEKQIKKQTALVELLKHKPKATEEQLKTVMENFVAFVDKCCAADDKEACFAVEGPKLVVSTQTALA
# trypsin, sequence (P00760 24-246): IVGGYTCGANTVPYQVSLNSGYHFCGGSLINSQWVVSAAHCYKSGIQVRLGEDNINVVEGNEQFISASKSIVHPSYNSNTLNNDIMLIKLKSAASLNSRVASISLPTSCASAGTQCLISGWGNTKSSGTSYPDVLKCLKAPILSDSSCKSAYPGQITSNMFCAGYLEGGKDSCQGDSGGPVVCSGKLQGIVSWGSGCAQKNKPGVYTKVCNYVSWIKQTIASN
# fluorescein-modified BSA encapsulated in octahedra-shaped DNA origami (OCs), sequence (P02769 25-607): as the sequence (P02769 25-607) above
substance,measurement,setting,value
trypsin,"fluorescence enhancement on tryptic digestion, BSA encapsulated inside PE2-coated OCs",[1],further reduced to ˜14% by PE2 coating on the OC surface
same,"fluorescence enhancement on tryptic digestion, BSA encapsulated inside bare OCs",[1],reduced to ˜40% by protein encapsulation inside the OCs
same,fluorescence enhancement of fluorescein labeled BSA in solution on tryptic digestion,[2],an 85% increase in the fluorescence intensity
